Kd data for one substance are collected here from PMC5849677.

Assay [1] has as its target native hC3d purified from human serum (human). In words: SPR; Biacore; hC3d or C3d(g)-Fc fusions immobilised by amine coupling (94.3-96.2 RU); Fc-fusion analytes 0.195-50 nM in HBS-EP+, physiological salt, 360 s injection; steady state affinity model; apparent KD. A general note: SPR reads the build-up and loss of mass on a sensor chip optically.
The target in assay [2] is hC3d,g (s)-Fc (Cys to Ser variant of hC3dg-Fc) (human) (UniProt P01024). Described as above.

For the substance “hCR2 (SCR1-4)-Fc (from UniProt P20023 21-273) (Fc fusion)”, the figures for the Kd in assay [1] and in assay [2] were 10.6 nM and 2.6 nM, respectively.
